Test results reported in patent publication US20230137139A1, “BIOSYNTHESIS OF CANNABINOIDS AND C[…]” (priority 2020, published 2023).

B1: t861555 (protein)
chain: MGNTTSIAGRDCLISALGGNSALAVFPNELLWTADVHEYNLNLPVTPAAITYPETAAQIAGVVKCASDYDYKVQARSGGHSFGNYGLGGADGAVVVDMKHFTQFSMDDETYEAVIGPGTTLNDVDIELYNNGKRAMAHGVCPTIKTGGHFTIGGLGPTARQWGLALDHVEEVEVVLANSSIVRASNTQNQDVFFAVKGAAANFGIVTEFKVRTEPAPGLAVQYSYTFNLGSTAEKAQFVKDWQSFISAKNLTRQFYNNMVIFDGDIILEGLFFGSKEQYDALGLEDHFAPKNPGNILVLTDWLGMVGHALEDTILKLVGNTPTWFYAKSLGFRQDTLIPSAGIDEFFEYIANHTAGTPAWFVTLSLEGGAINDVAEDATAYAHRDVLFWVQLFMVNPVGPISDTTYEFTDGLYDVLARAVPESVGHAYLGCPDPRMEDAQQKYWRTNLPRLQELKEELDPKNTFHHPQGVMPA
B2: t861588 (protein)
chain: MGNTTSIAAGRDCLLSAVGGNHAHVAFQDQLLYQVTAVEPYNLNIPVTPAAVTYPQSADEIAAVVKCASEYGYKVQARSGGHSFGNYGLGGEDGAIVVEMKHFNQFSMDESTYTATIGPGITLGDLDTALYNAGHRAMAHGICPTIRTGGHLTMGGLGPTARQWGLALDHVEEVEVVLANSSIVRASNTQNQDILFAIKGAAASFGIVTEFKVRTEAAPGVAVQYSFTFNLGTPAEKAKLVKDWQAFIAQEDLTWKFYSNMNIFDGQIILEGIYFGSKEEYDALGLEKRFPSSEAGTVLVLTDWLGMVGHGLEDVILRLVGNTPTWFYAKSLGFTPRALIPDSAIDEFLNYIHENTPGTVSWFVTLSLEGGAINKVPGDATAYGHRDVLFWVQIFMINPLGPVSQTTYGFADGLYDVLAKAVPNSAGHAYLGCPDPRMPNAQQAYWRSNLPRLEELKGELDPKDIFHNPQGVMVVS
modifications: N- and C-terminal signal peptides
B3: t861567 (protein)
chain: MDSNTWEATFGSGFLLGELDKHLHANGNRAMAHGTCPGVGMGGHATIGGIGPSSRLWGTTLDHVLQVEVVTADGKIQRASKTQNPDLFWALQGAGASFGIITEFVVRTEPEPGSVVEYTYSVSLGKQSDMAPLYKQWQALVGDPSLDRRFTSLFIAEPLGVLITGTFYGTMYEWHASGIPDKLPRGPISVTVMDSLGSLAHIAEKTGLYLTNVPTSFASRSLALRQQDLLSEQSIDDLFEYMGSANADTPLWFVIFDNEGGAIADVPDNSTAYPHRDKVIVYQSYSVGLLGVTDKMIKFLDGVQDIVQRGAPNAHTTYAGYINPQLDRKAAQQFYWGDKLPRLQQIKKQYDPNNVFCNPQSIYPAEDMSDG
B4: t861562 (protein)
chain: MGNTTSIAAGRDCLISAVGGNAAHVAFQDQLLYQATAVEPYNLNIPITPAAITYPQSADEIAAVVKCASEYGYKVQARSGGHSFGNYGLGGEDGAIVVEMKHFSQFSMDESTYIATIGPGITLGDLDTELYNVGHRAMAHGICPTIRTGGHLTVGGLGPTARQWGLALDHVEEVEVVLANSSIVRASDTQNQDIFFAIKGAAASFGIVTEFKVRTEQAPGLAVQYSYTFNLGTPAEKAKLVKDWQAFIAQENLSWKFYSNMVVFDGQIILEGLYFGSKEEYDALGLEQRFPPSEAGNVLVLTDWLGMVGHELEDTILRLVGNTPTWFYAKSLGFTPRALIPDSAIDDLFNYIHENNPGTLAWFVTLSLEGGAINTVPEHATAYGHRDVLFWVQIFVINPLGPVSQTTYGFADGMYDVLAQAVPESAGHAYLGCPDPRMPNAQQAYWRSNLPRLEELKGDLDPKGIFHNPQGVMVVS
B5: t861559 (protein)
chain: MAPSISFSLLQISLLAYSGLVSGDFSLRQCLESAVSRVAFEGDPFYQLLSVRPYNLDISIVPAAVAFPADTNEVAAVVRCAAQNGYQVQAKSGGHSYANHGLGGTNGAVVVNLENLQHFSMNTTTWEATIGAGTLLGDVTKRLSDAGGRAMAHGTCPQVGSGGHFTIGGLGPSSRQFGAALDHIIEAEVVLANSSIIRASETENPDVFFAVRGAASGFGIVTEFKVRTEPEPGQAVRYSYSFSFSDTATRADLFKKWQAYVTQPDLPRELASTLTILEHGMFITGTFFGSKEEYNALKIETEFPGFAKGGTLVLDDWLGLVSNWAEDLLLSEEEIEQMFEYIDNVDKGTLLWFAIFDLQGGAVGDVPVDATAYAHRDTLIWLQSYAINLFGRISETTVEFLERLNELTLTSTAKTVPYAAYPGYVDPRLTDAQAAYWGSNLARLNRIKAEIDPNNVFHNPQSVRPASG
B6: t861586 (protein)
chain: MAPSISFSLLQISLLAYSGLVSGDFSLRQCLESAVSRVAFEGDPFYQLLSVRPYNLDISIVPAAVAFPADTNEVAAVVRCAAQNGYQVQAKSGGHSYANHGLGGTNGAVVVNLENLQHFSMNTTTWEATIGAGTLLGDVTKRLSDAGGRAMAHGTCPQVGSGGHFTIGGLGPSSRQFGAALDHIIEAEVVLANSSIIRASETENPDVFFAVRGAASGFGIVTEFKVRTEPEPGQAVRYSYSFSFSDTATRADLFKKWQAYVTQPDLPRELASTLTILEHGMFITGTFFGSKEEYNALKIETEFPGFAKGGTLVLDDWLGLVSNWAEDLLLSEEEIEQMFEYIDNVDKGTLLWFAIFDLQGGAVGDVPVDATAYAHRDTLIWLQSYAINLFGRISETTVEFLERLNELTLTSTAKTVPYAAYPGYVDPRLTDAQAAYWGSNLARLNRIKAEIDPNNVFHNPQSVRPASG
B7: t861557 (protein)
chain: MLKTIAAVVFICSQAFLVRADLKSELTALGVGAVFPGDSVYTSDAKPYNLRFDFKPAAITFPNTPADVSQIVQIAGKYAHKVAPRGGGHSYISNGVGGMDNSIIADMSHFKSIVVHTNNDTATIETGNRLGDIALALFQYGRGMPHGACPYVGIGGHANFGGFGFISRSWGLTLDVVEAIDLVLANGTITTVSATQNPDLYWAMRGSGSSFGITTAIHVRTFSAPASGIIALDTWYLNLEQAVRALSSFQDFAHNTVTLPSYFGGEFVVNAGPSPGLLSITFFSGFWGPPNQYNSTLAPWKNSMPFPPNTTSYSQGNYIESLSARFGGAPLDTSLGPDNTDTFYVKSLIVPQVTISDEGAQVGISDKAWRALFQYLINEQPNLPVDWFIEVELWGGQNSAINAVPQASTAFAYRDLLWTLQMYSYTPNHQPPYPDAGFAFNDGMANSIIHNMPNGWNYGAYTNYVDNRLDDWQRLYYANHYPALQALKSRYDPSDTFSFPTSIELL
B8: t861563 (protein)
chain: MARVPALFLGLSSVCLLVFFCSLINPTTPLHQHGKQTSIAGRDCLVSALGGNTGLVAFQDQLLYQTTAVHEYNLNIPVTPAAITYPETSEQIAAVVKCASEYDYKVQARSGGHSFGNYGLGGADGAVVVDMKHFTQFSMDEQTYEAVIGPGTTLGDVDTELYNNGKRAMAHGICPTISTGGHFTMGGLGPTARQWGLALDHVEEVEVVLANSSIVRASNTQNQEVFFAVKGAAASFGIVTEFKVRTQPAPGLAVQYSYTFNLGSSAEKAQFVKDWQSFISAKNLTRQFYTNMVIFDGNIILEGLFFGSKEQYEALGLEDRFVPKNPGNILVLTDWLGMVGHALEDTILRLVGNTPTWFYAKSLGFTPDTLIPSSGIDEFFDYIENNKAGTLTWFVTLSLEGGAINDVPKDATAYGHRDVLFWVQIFMASPTGPVSSTTYDFADGLYNVLTKAVPESEGHAYLGCPDPKMADAQQKYWRQNLPRLEELKATLDPKDTFHNPQGILPA
B9: t861568 (protein)
chain: MGNSASVAGRACFVAAVGHDPNLVTFRGDLLYEFRIQPSYNLAIPVHPTVVTYPKTTAQVAEIVSCAAAQNYKMQAYSGGHSYGNYGLGGEDGHVVVDLKNFQDFTMDPDTHVATIGAGTSLGDLQDRLWHAGGRAMAHGSCPQVGVGGHFTIGGLGMMSRQWGMSLDHVVEAQVVLANSSVVTASDTQNQDIFWAIKGAAASFGIVTKFKVRTHGVPKAAIQYQYTFSQGDVLDKVKLFMAWQNIVAKPNLTRNFSTELTIFQDGIMIMGSFFGTRDEFHKFELENDLPLQGLGNVAYITNWLSLVAHTAEDYLLRLTGNVLTSFYAKSLSFTADELFNEQGLVTLFTYLDAAPKGTPTWWVIFDLEGGATNDVPVNATSYAHRDAIMWMQSYAVAGFEPPGFIIKRFLNRLHGVVIGNRAPGAVRSYPGYVDPYLRNAQETYWGPNLARLQDIKTAVDPDDVFHNPQSVKVNSLSPPDPGSHDV
B10: t861551 (protein)
chain: MGNTTSIAGRDCLISALGGNSALAVFPNQLLWTADVHEYNLNLPVTPAAITYPETAEQIAGIVKCASDYDYKVQARSGGHSFGNYGLGGTDGAVVVDMKHFNQFSMDDQTYEAVIGPGTTLNDVDIELYNNGKRAMAHGVCPTIKTGGHFTIGGLGPTARQWGLALDHVEEVEVVLANSSIVRASNTQNQDVFFAVKGAAADFGIVTEFKVRTEPAPGLAVQYSYTFNLGSTAEKAQFVKDWQSFISAKNLTRQFYNNMVIFDGDIILEGLFFGSKEQYDALGLEDHFAPKNPGNILVLTDWLGMVGHALEDTILKLVGNTPTWFYAKSLGFRQDTLIPSAGIDQFFEYIANHTAGTPAWFVTLSLEGGAINDVAEDATAYAHRDVLFWVQLFMVNPLGPISETTYEFTDGLYDVLARAVPESVGHAYLGCPDPRMENAPQKYWRTNLPRLQELKEELDPKNTFHHPQGVIPA

system: CBCA production; test: In vivo TS activity assay, Example 4 CBCAS enzymes with and without signal peptides, no pH adjustment; type: cell-based; conditions: strains with (Y) or without (N) N-terminal and C-terminal signal peptides; no pH adjustment at Day 4; S. cerevisiae
Experimental: An assay to detect TS activity was conducted as follows: each thawed glycerol stock of candidate CBCAS transformants was stamped into a well of YEP+4% dextrose media. Samples were incubated at 30° C. in a shaking incubator for 2 days. A portion of each of the resulting cultures was stamped into a well of YEP+4% galactose+1 mM olivetolic acid (FIG. 1 Structure 6a). Samples were incubated at 20° C. and shaken in a shaking incubator for 4 days. Every 24 hours during those 4 days, 2% galactose and 1 mM olivetolic acid were spiked into the cultures. Sodium citrate buffer adjusted to pH 5.5 was added to each well at a final concentration of 100 mM. Samples were incubated at 20° C. and shaken in a shaking incubator for 2 days. A portion of each of the resulting production cultures was stamped into a well of phosphate buffered saline (PBS). Optical measurements were taken on a plate reader, with absorbance measured at 600 nm and fluorescence at 528 nm with 485 nm excitation. Samples were incubated at 30° C. in a shaking incubator for 2 days. 100% methanol was stamped into the production cultures in half-height deepwell plates. Plates were heat sealed and frozen. Samples were then thawed for 30 min and spun down at 4° C. A portion of the supernatant was stamped into half-area 96 well plates. CBCA, THCA, and CBDA production in the samples was quantified via liquid chromatography-mass spectrometry (LC-MS).
A library of 20 CBCAS enzymes selected from Example 1 and 3 was synthesized, including versions of the CBCAS enzymes with and without the N-terminal MFalpha2 signal peptide (SEQ ID NO: 16) and C-terminal HDEL signal peptide (SEQ ID NO: 17). Each candidate enzyme expression construct was transformed into an S. cerevisiae CEN.PK strain that also expressed a prenyltransferase enzyme capable of catalyzing reaction R^4 in FIG. 2. Strain t861555 expressing the A. niger CBCAS identified in Example 1, carrying both the Mfalpha2 and HDEL signal peptides was included in the library screen as a positive control for enzyme activity. Strain t861565 expressed the same A. niger CBCAS without the Mfalpha2 and HDEL signal peptides.
The strains were screened using the assay described in Example 1 with the following exception: at Day 4 samples were not subjected to a pH adjustment and a further 2 days of incubation at 20° C.

In order of falling “Average CBCA” value:
1. B4  55737.91 µg/L
2. B2  42686.95 µg/L
3. B1  21237.64 µg/L
4. B10  17501.94 µg/L
5. B8  4821.60 µg/L
6. B7  520.64 µg/L
7. B3  0.00 µg/L
8. B5  0.00 µg/L
9. B6  0.00 µg/L
10. B9  0.00 µg/L
